Experimental findings from paper PMC9701221 (Nature Communications, 2022) are described below.

B2: bacteriophage SPP1 head completion protein gp16 (stopper protein) (natural protein, UniProt O48446 1-109, looked up)
chain: MYEEFPDVITFQSYVEQSNGEGGKTYKWVDEFTAAAHVQPISQEEYYKAQQLQTPIGYNIYTPYDDRIDKKMRVIYRGKIVTFIGDPVDLSGLQEITRIKGKEDGAYVG
notes: Head completion (stopper) protein gp16 of bacteriophage SPP1; native protein from the virion connector; Hexamer in the connector; monomer in solution before assembly (PDB 2KCA, cited); source: CsCl gradient, EDTA disruption, glycerol gradient
B3: bacteriophage SPP1 portal protein gp6 (natural protein, UniProt P54309 1-503, looked up)
chain: MADIYPLGKTHTEELNEIIVESAKEIAEPDTTMIQKLIDEHNPEPLLKGVRYYMCENDIEKKRRTYYDAAGQQLVDDTKTNNRTSHAWHKLFVDQKTQYLVGEPVTFTSDNKTLLEYVNELADDDFDDILNETVKNMSNKGIEYWHPFVDEEGEFDYVIFPAEEMIVVYKDNTRRDILFALRYYSYKGIMGEETQKAELYTDTHVYYYEKIDGVYQMDYSYGENNPRPHMTKGGQAIGWGRVPIIPFKNNEEMVSDLKFYKDLIDNYDSITSSTMDSFSDFQQIVYVLKNYDGENPKEFTANLRYHSVIKVSGDGGVDTLRAEIPVDSAAKELERIQDELYKSAQAVDNSPETIGGGATGPALENLYALLDLKANMAERKIRAGLRLFFWFFAEYLRNTGKGDFNPDKELTMTFTRTRIQNDSEIVQSLVQGVTGGIMSKETAVARNPFVQDPEEELARIEEEMNQYAEMQGNLLDDEGGDDDLEEDDPNAGAAESGGAGQVS
notes: Portal protein gp6 of bacteriophage SPP1, 503 residues; native protein from the virion connector; traced in the cryoEM map from residue 28 to 470; Dodecamer in the connector gp6(12)gp15(12)gp16(6); the assembly-naive recombinant form (PDB 2JES) is a 13-mer; also called connector gp6; gp6 12-mer; source: CsCl gradient, EDTA disruption, glycerol gradient; copies: 12

Holding throughout (test): cryo-EM structure; single particle cryoEM of the native gp6gp15gp16 connector extracted from tailless DNA-filled capsids, 0.64 mg/mL in 0.5x TBT (Tris-Cl pH 7.5, NaCl, MgCl2); C6 symmetry in the final refinement; 2.7 Å (FSC 0.5)
Data set [1] deals with the molecule itself.
Data set [2] deals with B2. Conditions: both partners purified.
In data set [3] the target is B3. Conditions: both partners purified.

B1: bacteriophage SPP1 head completion protein gp15 (adaptor protein) (natural protein, UniProt Q38584 1-102, looked up)
chain: MDIQRVKRLLSITNDKHDEYLTEMVPLLVEFAKDECHNPFIDKDGNESIPSGVLIFVAKAAQFYMTNAGLTGRSMDTVSYNFATEIPSTILKKLNPYRKMAR
notes: Head completion (adaptor) protein gp15 of bacteriophage SPP1; native protein from the virion connector; C-terminal residues ArgLysMetAlaArg, last residue named Arg102; Dodecamer in the connector; monomer in solution before assembly (PDB 2KBZ, cited); source: CsCl gradient, EDTA disruption, glycerol gradient; copies: 12
In the case of B1, in data set [1], the “stoichiometry N” value was determined as 12. Moreover, the binding result in data set [2] and in data set [3] was “binds” in each case.
Take B2: in data set [1], the “stoichiometry N” value amounted to 6.
The same measure, in the same setting: then B3, with 12.

In general, stoichiometry N refers to a count of units in the complex or per binding partner.
